B1: C-terminal FLAG-tagged WT ZYG11B [human] / Strep-tagged NLRP1, C-terminal fragment generated by 3C cleavage (begins at G131) [human] (parent complex)
chain 1: PEDQAGAAMEEASPYSLLDICLNFLTTHLEKFCSARQDGTLCLQEPGVFPQEVADRLLRTMAFHGLLNDGTVGIFRGNQMRLKRACIRKAKISAVAFRKAFCHHKLVELDATGVNADITITDIISGLGSNKWIQQNLQCLVLNSLTLSLEDPYERCFSRLSGLRALSITNVLFYNEDLAEVASLPRLESLDISNTSITDITALLACKDRLKSLTMHHLKCLKMTTTQILDVVRELKHLNHLDISDDKQFTSDIALRLLEQKDILPNLVSLDVSGRKHVTDKAVEAFIQQRPSMQFVGLLATDAGYSEFLTGEGHLKVSGEANETQIAEALKRYSERAFFVREALFHLFSLTHVMEKTKPEILKLVVTGMRNHPMNLPVQLAASACVFNLTKQDLAAGMPVRLLADVTHLLLKAMEHFPNHQQLQKNCLLSLCSDRILQDVPFNRFEAAKLVMQWLCNHEDQNMQRMAVAIISILAAKLSTEQTAQLGTELFIVRQLLQIVKQKTNQNSVDTTLKFTLSALWNLTDESPTTCRHFIENQGLELFMRVLESFPTESSIQQKVLGLLNNIAEVQELHSELMWKDFIDHISSLLHSVEVEVSYFAAGIIAHLISRGEQAWTLSRSQRNSLLDDLHSAILKWPTPECEMVAYRSFNPFFPLLGCFTTPGVQLWAVWAMQHVCSKNPSRYCSMLIEEGGLQHLYNIKDHEHTDPHVQQIAVAILDSLEKHIVRHGRPPPCKKQPQARLN
chain 2: GSERRVLRQLPDTSGRRWREISASLLYQALPSSPDHESPSQESPNAPTSTAVLGSWGSPPQPSLAPREQEAPGTQWPLDETSGIYYTEIREREREKSEKGRPPWAAVVGTPPQAHTSLQPHHHPWEPSVRESLCSTWPWKNEDFNQKFTQLLLLQRPHPRSQDPLVKRSWPDYVEENRGHLIEIRDLFGPGLDTQEPRIVILQGAAGIGKSTLARQVKEAWGRGQLYGDRFQHVFYFSCRELAQSKVVSLAELIGKDGTATPAPIRQILSRPERLLFILDGVDEPGWVLQEPSSELCLHWSQPQPADALLGSLLGKTILPEASFLITARTTALQNLIPSLEQARWVEVLGFSESSRKEYFYRYFTDERQAIRAFRLVKSNKELWALCLVPWVSWLACTCLMQQMKRKEKLTLTSKTTTTLCLHYLAQALQAQPLGPQLRDLCSLAAEGIWQKKTLFSPDDLRKHGLDGAIISTFLKMGILQEHPIPLSYSFIHLCFQEFFAAMSYVLEDEKGRGKHSNCIIDLEKTLEAYGIHGLFGASTTRFLLGLLSDEGEREMENIFHCRLSQGRNLMQWVPSLQLLLQPHSLESLHCLYETRNKTFLTQVMAHFEEMGMCVETDMELLVCTFCIKFSRHVKKLQLIEGRQHRSTWSPTMVVLFRWVPVTDAYWQILFSVLKVTRNLKELDLSGNSLSHSAVKSLCKTLRRPRCLLETLRLAGCGLTAEDCKDLAFGLRANQTLTELDLSFNVLTDAGAKHLCQRLRQPSCKLQRLQLVSCGLTSDCCQDLASVLSASPSLKELDLQQNNLDDVGVRLLCEGLRHPACKLIRLGLDQTTLSDEMRQELRALEQEKPQLLIFSRRKPSVMTPTEGLDTGEMSNSTSSLKRQRLGSERAASHVAQANLKLLDVSKIFPIAEIAEESSPEVVPVELLCVPSPASQGDLHTKPLGTDDDFWGPTGPVATEVVDKEKNLYRVHFPVAGSYRWPNTGLCFVMREAVTVEIEFCVWDQFLGEINPQHSWMVAGPLLDIKAEPGAVEAVHLPHFVALQGGHVDTSLFQMAHFKEEGMLLEKPARVELHHIVLENPSFSPLGVLLKMIHNALRFIPVTSVVLLYHRVHPEEVTFHLYLIPSDCSIRKAIDDLEMKFQFVRIHKPPPLTPLYMGCRYTVSGSGSGMLEILPKELELCYRSPGEDQLFSEFYVGHLGSGIRLQVKDKKDETLVWEALVKPGDLMPATTLIPPARIAVPSPLDAPQLLHFVDQYREQLIARVTSVEVVLDKLHGQVLSQEQYERVLAENTRPSQMRKLFSLSQSWDRKCKDGLYQALKETHPHLIMELWEKGSKKGLLPLSS

In this test the parent is B1. Description: coIP with western blot quantification; HEK293T cells, transfected for 48 h, with 3C protease; read off a plot.
For chain 1 W521A, the ratio to parent was about 0.05.
Consider chain 1 N566A, for which the ratio to parent was about 0.08.
The same measure for chain 1 D434K: about 0.94.
In the case of chain 1 E569A, the ratio to parent is about 0.05.
As for chain 1 Y684A, the ratio to parent was about 0.51.
For chain 1 E643K, the ratio to parent is about 0.5.
In the case of chain 1 F515A, the ratio to parent is about 0.85.
Regarding chain 1 R465A, the ratio to parent was about 0.27.
For chain 1 D525A, the ratio to parent is about 0.05.
In the case of chain 1 K514E, the ratio to parent was about 1.1.

For the origin of these results see publication PMC13379236 (2026).
